# pKd: −log10 of the molar value.
# Target: GFP-FcγRIIIa, extracellular region of human FcγRIIIa (residues 19-193, V158 allotype) (human) (UniProt P08637)
# Experiment: ITC
row,pKd,Substance
1,5.92,Human IgG1 Fc wt (residues 216-447) with G2F N-glycan (domain or fragment)

# Target: Human IgG1 Fc wt (residues 216-447) with G2F N-glycan (human)
# Experiment: pull-down
row,pKd,Substance
1,6.30,"GFP-FcγRIIIa, extracellular region of human FcγRIIIa (residues 19-193, V158 allotype) (from UniProt P08637 19-193) (receptor)"

# Target: GFP-FcγRIIIa, extracellular region of human FcγRIIIa (residues 19-193, V158 allotype) (human) (UniProt P08637)
# Experiment: SPR
row,Substance,pKd
1,Human IgG1 Fc F241I/F243I with a single GlcNAc residue (domain or fragment),5.20
2,Human IgG1 Fc F241I/F243I with G2F N-glycan (domain or fragment),5.00
3,Human IgG1 Fc F243S with G2F N-glycan (domain or fragment),5.72
4,Human IgG1 Fc K246F with G2F N-glycan (domain or fragment),6.47
5,Human IgG1 Fc wt (residues 216-447) with G2F N-glycan (domain or fragment),6.26
6,Human IgG1 Fc F241S with G2F N-glycan (domain or fragment),5.82

# Now from value to substance:
row,pKd,Substance
1,4.54,Human IgG1 Fc F241S/F243S with G2F N-glycan (domain or fragment)
2,5.62,Human IgG1 Fc wt with a single GlcNAc residue (GlcNAc-Fc) (domain or fragment)
3,5.68,Human IgG1 Fc F241I with G2F N-glycan (domain or fragment)
4,5.46,Human IgG1 Fc F241S/F243S with a single GlcNAc residue (domain or fragment)

# Source: publication PMC4192013
